Reference: US20170145104A1 (Bristol-Myers Squibb, published 2017)

Experiments:
[1] = target: T1, human GITR, membrane bound (on activated human T cells and on 3A9-hGITR cells) (human, UniProt Q9Y5U5 26-241); assay: FACS blocking assay on GITR-3A9 cells with GITR-L, plotted as % inhibition. The table prints no unit, so ug/mL is taken from the axis 'Conc (ug/mL)'.
T1 construct: whole, on cells; the cell is named under assay; also called huGITR; TNFRSF18
T1 sequence (looked up): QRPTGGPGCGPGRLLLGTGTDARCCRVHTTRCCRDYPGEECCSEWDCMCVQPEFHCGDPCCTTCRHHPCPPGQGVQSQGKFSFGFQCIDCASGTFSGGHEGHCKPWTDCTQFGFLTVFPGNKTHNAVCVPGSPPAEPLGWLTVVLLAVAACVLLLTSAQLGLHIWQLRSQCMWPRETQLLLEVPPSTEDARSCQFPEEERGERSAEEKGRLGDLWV

[2] = target: T2, cynomolgus GITR on activated cynomolgus T cells (cynomolgus, UniProt Q9Y5U5 26-241 (human entry)); assay: FACS, activated cynomolgus T cells (anti-CD3/anti-CD28), PE anti-human IgG
T2 construct: also called cyno GITR
T2 chain: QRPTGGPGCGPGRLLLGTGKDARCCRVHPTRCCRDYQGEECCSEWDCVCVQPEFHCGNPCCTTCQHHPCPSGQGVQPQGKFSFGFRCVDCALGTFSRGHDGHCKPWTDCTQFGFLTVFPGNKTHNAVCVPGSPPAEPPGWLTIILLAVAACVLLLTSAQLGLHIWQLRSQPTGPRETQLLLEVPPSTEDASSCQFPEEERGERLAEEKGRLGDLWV
Method: (§1) Peripheral Blood Mononuclear Cells (PBMCs) isolated from human or cynomolgus monkey were activated with plate-coated anti-CD3 antibody (Clone: UCHT1 for human T cell activation; Clone: SP34 for cynomolgus T cell activation; both from BD Biosciences) and soluble anti-CD28 antibody (Clone:CD28.2 for both human and cynomolgus monkey, BD Biosciences) for 4 days (human)/or 5 days (cynomolgus monkey). The cells were tested for GITR mAb binding in a fluorescence-activated cell sorting (FACS)-based assay using a phycoerythrin (PE)-conjugated anti-human IgG antibody (Jackson ImmunoResearch). The samples were analyzed on a BD FACS Canto Flow Cytometer.

[3] = target: T1, human GITR, membrane bound (on …); assay: FACS, activated human T cells (anti-CD3/anti-CD28), PE anti-human IgG
Method: as §1

[4] = target: T1, human GITR, membrane bound (on …); assay: FACS blocking assay on GITR-3A9 cells: antibody titrated first, then GITR-L, bound GITR-L read as GMFI (PE). The table prints no unit, so ug/mL is taken from the axis 'Conc (ug/mL)'.
[5] = target: T3, non-glycosylated N-terminal human GITR peptide consisting of SEQ ID NO: 215 (human); assay: capture on 28F3 coated beads, LC-MS
T3 construct: Made by proteolysis of native GITR-mouse Fc and also by organic synthesis; also called N-terminal peptide without O-linked glycosylation
T3 peptide: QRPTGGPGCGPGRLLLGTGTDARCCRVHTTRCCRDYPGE
Method: The experiment was conducted as follows: Human GITR peptide fragments were generated by incubation of human GITR with Endoproteinase Arg-C, Endoproteinase Lys-C, Trypsin, Endoproteinase Glu-C or Endoproteinase Asp-N at a 2% w/w ratio at 37° C. in PBS for five hours without the presence of denaturing reagents. The peptide mixture was then incubated with anti-GITR Ab beads in PBS at room temperature for two hours. Some samples were subjected to in situ secondary cleavage by incubation with a different enzyme in PBS for an hour. Unbound peptides were removed by washing the anti-GITR Ab beads twice with PBS.

mouse GITR = target: T4, mouse GITR (mouse, UniProt O35714 20-228); assay: stated in the Treg suppression assay with wildtype and huGITR knock-in mouse T cells
T4 construct: whole, on cells; also called muGITR
T4 sequence (looked up): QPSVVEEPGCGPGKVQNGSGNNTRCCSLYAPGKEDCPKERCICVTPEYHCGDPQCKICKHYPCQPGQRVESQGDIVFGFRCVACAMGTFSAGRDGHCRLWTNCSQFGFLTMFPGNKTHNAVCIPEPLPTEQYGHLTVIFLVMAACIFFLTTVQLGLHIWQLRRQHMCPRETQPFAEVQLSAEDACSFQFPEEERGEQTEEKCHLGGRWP

B1: 28F3 (antibody, human IgG2, kappa)
heavy: QVQLVESGGGVVQPGRSLRLSCAASGFTFSSYGMHWVRQAPGKGLEWVAVIWYEGSNKYYADSVKGRFTISRDNSKNTLYLQMNSLRAEDTAVYYCARGGSMVRGDYYYGMDVWGQGTTVTVSSASTKGPSVFPLAPCSRSTSESTAALGCLVKDYFPEPVTVSWNSGALTSGVHTFPAVLQSSGLYSLSSVVTVPSSNFGTQTYTCNVDHKPSNTKVDKTVERKCCVECPPCPAPPVAGPSVFLFPPKPKDTLMISRTPEVTCVVVDVSHEDPEVQFNWYVDGVEVHNAKTKPREEQFNSTFRVVSVLTVVHQDWLNGKEYKCKVSNKGLPAPIEKTISKTKGQPREPQVYTLPPSREEMTKNQVSLTCLVKGFYPSDIAVEWESNGQPENNYKTTPPMLDSDGSFFLYSKLTVDKSRWQQGNVFSCSVMHEALHNHYTQKSLSLSPGK
light: not shown
notes: Hybridoma-derived human antibody, IgG2 constant region; also called 13H2; 28F3 (IgG2)
- EC50 [1]: 0.278 µg/mL
- EC50 [2]: 1040 pM
- EC50 [3]: 192 pM
- EC50 [4]: 0.278 µg/mL
- binding result [5]: binds
- binding result (mouse GITR): no binding
